Test results taken from the nanobody polyreactivity screen of Harvey et al. (2022).

Test: yeast display, Sf9 membrane polyspecificity reagent, FACS + sequencing; frameworks hold sequencing errors
Summary of the method: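 A synthetic nanobody library was expressed on Saccharomyces cerevisiae BJ5465 by galactose induction for 36–48 hours. The library was stained for 1 hour at 4 °C with 10% biotinylated, detergent-solubilized Sf9 membrane reagent and enriched with streptavidin microbeads before FACS. Low and high (top ~1%) gates were set on anti-HA fluorescence for expression and streptavidin fluorescence for reagent binding, and each polyreactivity label reflects the gate of origin.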
With “QVQLVESGGGLVQAGGSLRLSCAASGSTFDPNTMGWYRQAPGKERELVAAITSSTASTYYADSVKGRFTISRDNAKNTVYLQMNSLKPEDTAVYYCAADSEQDNLRYYRWVWYYYWGQGTQVTVSS” the “polyreactivity (PSR sort gate)” value was “low polyreactivity”.
In the case of “QVQLVESGGGLVQAGGSLRLSCAASGSTFDPYAMGWYRQAPGKDRELVAAISSDGSTYYADSVKGRFTISRDNAKNTVYLQMNSLKPEYTAVYYCAADPFYWYRSVRGEYWGQGTQVTVSS”, the “polyreactivity (PSR sort gate)” value is reported as “low polyreactivity”.
In the case of “QVQLVESGGGLVQAGGSLRLSCAASGSTFDQYAMGWYRQAPGKDRELVAAISGSGGRTSYADSVKGRFTISRDNAKNTVYLQMNSLKPEDTAVYYCNKASYRISVPRYDYWGQGTQVTVTS”, the “polyreactivity (PSR sort gate)” value is reported as “high polyreactivity”.
With “QVQLVESGGGLVQAGGSLRLSCAASGSTFDRYAMGWYRQAPGKEREFVAAITWGGGSTYYADSVKGRFTISRDNAKNTVYLQMNSLKPEDTAVYYCATRYGATFGYWGQGTQVTVSS” the “polyreactivity (PSR sort gate)” value was “low polyreactivity”.
For “QVQLVESGGGLVQAGGSLRLSCAASGSTFDSYAMGWYRQAPGKEREFVAAISSCAGSSGRTSYADSVKGRFTISRDNATNTVYLQMNSLKPEDTAVYYCAKEYTLAKYREYDYWGQGTQVTVSS”, the “polyreactivity (PSR sort gate)” value was “low polyreactivity”.
For “QVQLVESGGGLVQAGGSLRLSCAASGSTFDSYAMGWYRQAPGKERELVAAISTSGGSTYYADSVKGRFTISRDNAKNTVYLQMNSLKPEDTAVYYCAAYSISSRMNYWGQGSQVTVSS”, the “polyreactivity (PSR sort gate)” value was “high polyreactivity”.
In the case of “QVQLVESGGGLVQAGGSLRLSCAASGSTFDSYAMGWYRQAPGKERELVAAITTTGGSTFYADSVKGRFTISRDNAKNTVYLQMNSLKPEDTAVYYCAADDGWQEFEYWGQGTQVTVSS”, the “polyreactivity (PSR sort gate)” value is reported as “low polyreactivity”.
For “QVQLVESGGGLVQAGGSLRLSCAASGSTFDSYAMGWYRQAPGKERELVAAITTTGGSTFYADSVKGRFTISRDNAKNTVYLQMNSLKPEDTAVYYCADDDGWQEFEYWGQGTQVTVSS”, the “polyreactivity (PSR sort gate)” value was “low polyreactivity”.
With “QVQLVESGGGLVQAGGSLRLSCAASGSTFDTNAMGWSRPAPGKEREWVAAITWRGGRTSYADSVKGRFTISRDNAKNTVYLQMNSLKPEDTAVYYCAAGYKFGPPAAGTFSDFDYWGQGTQVTVTS” the “polyreactivity (PSR sort gate)” value was “low polyreactivity”.
For “QVQLVESGGGLVQAGGSLRLSCAASGSTFDTNAMGWYRQAPGKERELVAAISASGGSTYYADSVKGRFTISRDNAKNTVYLQMNSLKPEDTAVYYCAATSGRAFKYDYWGQGTQVTVSS”, the “polyreactivity (PSR sort gate)” value was “high polyreactivity”.
For “QVQLVESGGGLVQAGGSLRLSCAASGSTFDTNAMGWYRQAPGKERELVATITSIGGSKYADSVKGRFTISRDNAKNTVYLQMNSLIPEDTAVYYCATDYVEIDYDYDYWGQGTQVSVSS”, the “polyreactivity (PSR sort gate)” value was “low polyreactivity”.
For “QVQLVESGGGLVQAGGSLRLSCAASGSTFDTNAMGWYRQAPGKERELVATITSIGGSTYADSVKGRFTISRDNAKNTVYLQMNSLKPEDTAVYYCATDYVEIDYDYDYWGQGTQVTLSS”, the “polyreactivity (PSR sort gate)” value was “low polyreactivity”.
In the case of “QVQLVESGGGLVQAGGSLRLSCAASGSTFDTNVMGWYRQAPGKERDLVAAIDVSGGSTYYADSVKGRFTISRDNAKNTVYLQMNSLKPVDTAVYYCAAVDGKYGMDYWGQGTQVTVST”, the “polyreactivity (PSR sort gate)” value is reported as “low polyreactivity”.
In the case of “QVQLVESGGGLVQAGGSLRLSCAASGSTFDVYAKGWYRQAPGKEWELVAAISRSGGSTYYADSVKGRFTISRDNAKNTVYLQMNSLKPEDTAVYYCNPRLARWGSDEYNYWGQGTQETVSS”, the “polyreactivity (PSR sort gate)” value is reported as “low polyreactivity”.
With “QVQLVESGGGLVQAGGSLRLSCAASGSTFDVYAMGWYRQAPGKERELVAAIDVRDSTTYYADSVKGRFTISRDNAKNTVYLQMNSLKPEDTAVYYCAAEADIEYGDDDYWGQGTQVTVSS” the “polyreactivity (PSR sort gate)” value was “high polyreactivity”.
With “QVQLVESGGGLVQAGGSLRLSCAASGSTFDVYAMGWYRQAPGKERELVAAISYIGDNTYYADSVKGRFTISRDNAKNTVYLQMNSLKPEDTAVYYCAAEAEHYSFQDYYVEYDYWGQGTQVTVSS” the “polyreactivity (PSR sort gate)” value was “high polyreactivity”.
For “QVQLVESGGGLVQAGGSLRLSCAASGSTFDYNAMGWYRQAPGKERELVAAITTIGGSTYYADSVKGRFTISRDNAKNTVYLQMNSLKPEDTAVYYCAADLRVWGRSGYDYWGQGTQVTVSS”, the “polyreactivity (PSR sort gate)” value was “low polyreactivity”.
With “QVQLVESGGGLVQAGGSLRLSCAASGSTFDYNAMGWYRQAPGKERELVADITGSGASTSYADSVKGRFTISRDNAKNTVYLQMNSLKPEDTAVYYCAATGYSSWTYYTHEYWGQGTQVTVSS” the “polyreactivity (PSR sort gate)” value was “low polyreactivity”.
In the case of “QVQLVESGGGLVQAGGSLRLSCAASGSTFDYNAMGWYRQAPGKERELVATISSSVGSTYYADSVKGRFTISRDNAKNTVNLQMNSLKPEDTAVYYCNSDYVAYGPEYDYWGQGTQVTVSS”, the “polyreactivity (PSR sort gate)” value is reported as “low polyreactivity”.
For “QVQLVESGGGLVQAGGSLRLSCAASGSTFDYNTMGWYIQAPGKERELVAAISESGGSTYYADSVKGRFTISRDNAKNTVYLQMNSLKPEDTAVYYCATDDFGGYFGEYDYWGQGTQVTVSS”, the “polyreactivity (PSR sort gate)” value was “low polyreactivity”.
With “QVQLVESGGGLVQAGGSLRLSCAASGSTFDYSGMGWDIQAPGKERELVATITRRGGNTYYADSVKGRITISRDNANNTDYLQMNSLKPEDTAVYNCNVTPVRGSPEYGNWGQGTQVTVSS” the “polyreactivity (PSR sort gate)” value was “high polyreactivity”.
In the case of “QVQLVESGGGLVQAGGSLRLSCAASGSTFDYYALGWYRQAPGKETELVAAISRSGVRTYYADSVKGRFTISRDNAKNTVYLQMNSLKPEDTAVYYCAAQVIPKFDWGQGTQVTVSS”, the “polyreactivity (PSR sort gate)” value is reported as “high polyreactivity”.
In the case of “QVQLVESGGGLVQAGGSLRLSCAASGSTFDYYAMGWYRQAPGKERELVAAISRSGGRTYYADSVKGRFTISRDNAKNTVYLQMNSLKPEDTAVYYCAADKPVIGTYSRYDYWGQGTQVTVSS”, the “polyreactivity (PSR sort gate)” value is reported as “high polyreactivity”.
For “QVQLVESGGGLVQAGGSLRLSCAASGSTFDYYAMGWYRQAPGKERELVAAISRTGGRTYYADSVKGRFTISRDNAKNTVFLQMNSLKPEDTAVYYCAARGGWVRRYGWRLDYWGQGTQVTVSS”, the “polyreactivity (PSR sort gate)” value was “low polyreactivity”.
For “QVQLVESGGGLVQAGGSLRLSCAASGSTFDYYAMGWYRQAPGKERELVAAITSTGSTYYADSVKGRFTISRDNAKNTVYLQMNSLKPEDTAVYYCAADDIYKYYQYYAFPYYRYDYWGQGTQVTVSS”, the “polyreactivity (PSR sort gate)” value was “low polyreactivity”.
For “QVQLVESGGGLVQAGGSLRLSCAASGSTFDYYDMGWYRQAPGKARELVAAISSGGDSTYYADSVKGRFTISRDNAKNTVYLQMNSLKPEDTAVYYCAAAVYYGQSVWYYYWGQGTQVTVSS”, the “polyreactivity (PSR sort gate)” value was “high polyreactivity”.
With “QVQLVESGGGLVQAGGSLRLSCAASGSTFDYYGMGWYRQAPGKERELVAAITTSGGSTYYADSVKGRFTISRDNAKNTVYLQMNSLKPEDTAVYYCAAESYWYGTSPYYYLYEYDYWGQGTQVTVSS” the “polyreactivity (PSR sort gate)” value was “high polyreactivity”.
For “QVQLVESGGGLVQAGGSLRLSCAASGSTFDYYSMGWYRQAPGKERELVAAISYSGSRTYYADSVKGRFTISRDNAKNTVYLQMNSLKPEDTAVYYCAARRGYVKGKTYDYWGQGTQVTVSS”, the “polyreactivity (PSR sort gate)” value was “high polyreactivity”.
For “QVQLVESGGGLVQAGGSLRLSCAASGSTFEDYVMGWYRQAPGKERELVAAITSGDNTKYADSVKGRFTISRDNAKNTVYLQMNSLKPEDTAVYYCNADFPDVRSEYDYWGQGTQVTVSS”, the “polyreactivity (PSR sort gate)” value was “high polyreactivity”.
With “QVQLVESGGGLVQAGGSLRLSCAASGSTFEEYAMGWYRKAPGKERELVAGITWGGGSTYYADSVKGRFTISRDNAKNTVYLQMNSLKPEDTAVYYCVFAFEYYYWGQGTQVTVSS” the “polyreactivity (PSR sort gate)” value was “low polyreactivity”.
In the case of “QVQLVESGGGLVQAGGSLRLSCAASGSTFEFNDMGWYIQAPGKERELVASIRHSDGSTYYADSVKGRFTISRDNAKNTVYLQMNSLKPEDTAVYYCNKAFQWSGGQVSYDYWGQATQVTVSS”, the “polyreactivity (PSR sort gate)” value is reported as “low polyreactivity”.
In the case of “QVQLVESGGGLVQAGGSLRLSCAASGSTFEGYAMGWYRQAPGKEMELVAAISSSGGTTNYADSVKGRFTISRDNAKNTVYLQMNSLKPEDTAVYYCAARKYAKYFYHYDYWGQGTQVTVSS”, the “polyreactivity (PSR sort gate)” value is reported as “low polyreactivity”.
In the case of “QVQLVESGGGLVQAGGSLRLSCAASGSTFENNAMGWYRQAPGKERELVASSTNYADSVKGRFTISRDNAKNTVYLQMNSLKPEDTAVYYCNLDTNSSYEFNSWGQGTQVTVSS”, the “polyreactivity (PSR sort gate)” value is reported as “low polyreactivity”.
With “QVQLVESGGGLVQAGGSLRLSCAASGSTFENNVMAWYRQAPGKERELVATITWGDGSTSYADSVKGRFTISRDNAKNTVYLQMNSLKPEDTAVYYCAADSAENVYRGYYWGQGTQVTVSS” the “polyreactivity (PSR sort gate)” value was “low polyreactivity”.
For “QVQLVESGGGLVQAGGSLRLSCAASGSTFESNAMGWYRQAPGKERELVASISGSGGSTFYADSVKGRFTISRDNAKNTVYLQMNSLKPEDTAVYYCAAYKEPYYEEYGYWGQGTQVTVSS”, the “polyreactivity (PSR sort gate)” value was “low polyreactivity”.
With “QVQLVESGGGLVQAGGSLRLSCAASGSTFESNFMGWYRQAPGKEWELVAAITWTGGSTYYADSVKGRFTISRDNAKNNVYLQMNSLKPVDTAVYYCATYDPGPLLGSDYWGHGTQVTVSS” the “polyreactivity (PSR sort gate)” value was “low polyreactivity”.
With “QVQLVESGGGLVQAGGSLRLSCAASGSTFESYAMGWYRQAPGKERELVAAISRRGGRTYYADSVKGRFTISRDNAKNTVYLQMYSLKPEDTAVYYCATDSSYYGSDDYWGQGTQVNVSS” the “polyreactivity (PSR sort gate)” value was “high polyreactivity”.
For “QVQLVESGGGLVQAGGSLRLSCAASGSTFETNAMGWYRQAPGKERELVAAISVSGGDTYYADSVKGRFTISRDNAKNTVYLQMNSLKPEDTAVYYCAAAERGYIFPDRMRYDYWGQGTQVTVSS”, the “polyreactivity (PSR sort gate)” value was “low polyreactivity”.
For “QVQLVESGGGLVQAGGSLRLSCAASGSTFETNGMGWYRQAPGKERELVAAITSGGSTYYADSVKGRFTISRDNAKNTVYLQMNSLKPEDTAVYYCAAVDGGWAYDPYDYWGQGTQVTVSS”, the “polyreactivity (PSR sort gate)” value was “low polyreactivity”.
In the case of “QVQLVESGGGLVQAGGSLRLSCAASGSTFEVNAMGWYRQAPGKERELVAAISSSAGDTYYADSVKGRFTISRDNAKNTVYLQMNSLKPEDTAVYYCAAKGFPRSGYPYQAQHMYYWGQGTQVTVSS”, the “polyreactivity (PSR sort gate)” value is reported as “low polyreactivity”.
In the case of “QVQLVESGGGLVQAGGSLRLSCAASGSTFEYNAMGWYRQAPGKERELVASSTNYADSVKGRFTISRDNAKNTVYLQMNSLKPEDTAVYYFAREQGVNRNHDYWGQGTQVTVSS”, the “polyreactivity (PSR sort gate)” value is reported as “low polyreactivity”.
For “QVQLVESGGGLVQAGGSLRLSCAASGSTFEYNAMGWYRQAPGKERELVASSTNYADSVKGRFTISRDNAKNTVYLQMNSLKPEVTAVYYCAAYQDYVYSESLFSVSARMYYWGQGTQVTVSS”, the “polyreactivity (PSR sort gate)” value was “low polyreactivity”.
In the case of “QVQLVESGGGLVQAGGSLRLSCAASGSTFEYYAMGWYRQAPGKERELLATISIDGRTNYADSVKGRFTISRDNAKNTVYLQLYSVKPEDTAVYYCGARPYWRHRYDYWGQGTQVTVSS”, the “polyreactivity (PSR sort gate)” value is reported as “low polyreactivity”.
